T1: virus-like particles (VLPs) of BK polyomavirus VP-1 protein, serotype IV (BK virus (BKPyV), serotype IV, UniProt P14996 1-362)
T1 construct: native VLPs; also called VLP IV
T1 chain: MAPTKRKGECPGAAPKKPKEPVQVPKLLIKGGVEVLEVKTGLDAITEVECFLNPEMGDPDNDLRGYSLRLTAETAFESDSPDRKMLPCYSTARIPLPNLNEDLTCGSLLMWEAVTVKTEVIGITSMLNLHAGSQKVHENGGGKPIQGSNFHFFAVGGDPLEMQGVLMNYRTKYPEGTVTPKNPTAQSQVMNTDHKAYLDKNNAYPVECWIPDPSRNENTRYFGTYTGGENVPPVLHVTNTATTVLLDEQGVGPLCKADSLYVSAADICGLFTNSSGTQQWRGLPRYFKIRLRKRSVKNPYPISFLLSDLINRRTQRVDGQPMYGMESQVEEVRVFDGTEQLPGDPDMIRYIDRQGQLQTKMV

T2: virus-like particles (VLPs) of BK polyomavirus VP-1 protein, serotype Ib2 (BK virus (BKPyV), serotype Ib2, PA …, UniProt P03088 1-362)
T2 construct: native VLPs; also the immunogen; also called VLP Ib2; BK Ib2
T2 chain: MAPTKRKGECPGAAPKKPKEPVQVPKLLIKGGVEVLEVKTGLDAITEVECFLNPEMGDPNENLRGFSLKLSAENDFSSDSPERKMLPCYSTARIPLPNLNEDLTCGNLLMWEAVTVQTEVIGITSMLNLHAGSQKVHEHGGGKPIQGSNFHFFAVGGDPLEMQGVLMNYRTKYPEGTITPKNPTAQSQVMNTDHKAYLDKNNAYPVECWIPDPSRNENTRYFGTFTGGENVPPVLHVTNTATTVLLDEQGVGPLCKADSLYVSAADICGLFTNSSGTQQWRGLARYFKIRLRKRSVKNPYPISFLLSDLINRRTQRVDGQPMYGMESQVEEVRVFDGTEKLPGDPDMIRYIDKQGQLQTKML

T3: virus-like particles (VLPs) of BK polyomavirus VP-1 protein, serotype II (BK virus (BKPyV), serotype II, UniProt P14996 1-362)
T3 construct: native VLPs; also called VLP II
T3 chain: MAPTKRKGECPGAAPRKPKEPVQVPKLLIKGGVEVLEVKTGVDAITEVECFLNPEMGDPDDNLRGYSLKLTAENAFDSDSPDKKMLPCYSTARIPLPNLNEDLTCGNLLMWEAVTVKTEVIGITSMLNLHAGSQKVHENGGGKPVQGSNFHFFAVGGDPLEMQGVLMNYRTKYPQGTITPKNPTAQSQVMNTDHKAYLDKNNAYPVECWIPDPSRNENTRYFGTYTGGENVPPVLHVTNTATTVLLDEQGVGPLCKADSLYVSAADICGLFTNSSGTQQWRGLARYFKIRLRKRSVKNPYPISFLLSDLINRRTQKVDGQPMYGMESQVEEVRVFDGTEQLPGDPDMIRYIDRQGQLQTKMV

T4: virus-like particles (VLPs) of BK polyomavirus VP-1 protein, serotype Ia (BK virus (BKPyV), serotype Ia, UniProt P03088 1-361)
T4 construct: self-assembled native VLPs coated on ELISA plates; also called VLP Ia; BKV VP-1, serotype Ia
T4 chain: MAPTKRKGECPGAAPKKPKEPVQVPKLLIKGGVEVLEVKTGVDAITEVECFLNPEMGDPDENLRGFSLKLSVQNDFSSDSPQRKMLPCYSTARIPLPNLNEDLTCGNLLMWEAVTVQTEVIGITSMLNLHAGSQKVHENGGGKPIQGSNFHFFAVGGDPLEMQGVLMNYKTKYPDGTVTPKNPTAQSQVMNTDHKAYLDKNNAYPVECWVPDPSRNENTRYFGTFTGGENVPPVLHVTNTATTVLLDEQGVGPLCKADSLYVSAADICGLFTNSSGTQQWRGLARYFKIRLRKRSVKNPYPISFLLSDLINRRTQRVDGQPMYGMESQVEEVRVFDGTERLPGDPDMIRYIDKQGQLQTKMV


Legend:
[1] = target: T1, virus-like particles (VLPs) of BK …; assay: ELISA on coated VLP; supernatant 1/640
Procedure: (§1) To do this, the VLPs produced were deposited at a concentration of 1 μg/mL in PBS and incubated overnight at +4° C. The wells were then blocked for 1 h at +37° C. with a PBS/FCS (phosphate-buffered saline/fetal calf serum) mixture. After dilution in a dilution buffer containing FCS, PBS and Tween® 20, the various hybridoma culture supernatants were added for 1 h at +37° C. The wells were washed four times in a row with Wash Buffer and a secondary anti-mouse antibody coupled to peroxidase was added to the 1:2000 dilution for 1 h at +37° C. The wells were washed four more times and the substrate (OPD (ortho phenylene diamine)+H₂O₂) was added for 30 min at room temperature. A stop solution (H₂SO₄ 4N) was then added and each well was read by measuring the absorbance at 492 nm with a spectrophotometer. The value obtained for the average of the control wells (PBS in the first step) is subtracted from the optical density values obtained for each well.

[2] = target: T2, virus-like particles (VLPs) of BK …; assay: ELISA on coated VLP; supernatant 1/640
Procedure: as §1

[3] = target: T3, virus-like particles (VLPs) of BK …; assay: ELISA on coated VLP; supernatant 1/640
Procedure: as §1

[4] = target: T4, virus-like particles (VLPs) of BK …; assay: ELISA on coated VLP; supernatant 1/640
Procedure: as §1

[5] = target: T2, virus-like particles (VLPs) of BK …; assay: ELISA on coated VLP; supernatant 1/5 120
Procedure: as §1

[6] = target: T1, virus-like particles (VLPs) of BK …; assay: ELISA on coated VLP; supernatant 1/2 560
Procedure: as §1

[7] = target: T2, virus-like particles (VLPs) of BK …; assay: ELISA on coated VLP; supernatant 1/2 560
Procedure: as §1

[8] = target: T3, virus-like particles (VLPs) of BK …; assay: ELISA on coated VLP; supernatant 1/2 560
Procedure: as §1

[9] = target: T4, virus-like particles (VLPs) of BK …; assay: ELISA on coated VLP; supernatant 1/2 560
Procedure: as §1

[10] = target: T1, virus-like particles (VLPs) of BK …; assay: ELISA on coated VLP; supernatant 1/320
Procedure: as §1

[11] = target: T2, virus-like particles (VLPs) of BK …; assay: ELISA on coated VLP; supernatant 1/320
Procedure: as §1

[12] = target: T3, virus-like particles (VLPs) of BK …; assay: ELISA on coated VLP; supernatant 1/320
Procedure: as §1

[13] = target: T4, virus-like particles (VLPs) of BK …; assay: ELISA on coated VLP; supernatant 1/320
Procedure: as §1

Binder | OD 492 nm [1] [OD] | OD 492 nm [2] [OD] | OD 492 nm [3] [OD] | OD 492 nm [4] [OD] | OD 492 nm [5] [OD] | OD 492 nm [6] [OD] | OD 492 nm [7] [OD] | OD 492 nm [8] [OD] | OD 492 nm [9] [OD] | OD 492 nm [10] [OD] | OD 492 nm [11] [OD] | OD 492 nm [12] [OD] | OD 492 nm [13] [OD]
monoclonal antibody ‘H6’ secreted by clone BK6A2H6 (antibody, V domains shown) VH: EVQLQQSGPELVKPGASVKISCKASGYSFTGYFMNWVKQSHGKSLEWIGRINPYNGDTFYNQKFKGKATLTVDKSSSTAHMELLSLTSEDSAVYYCGSYYYGDYFDYWGQGTTLTVSS VL: SIVMTQIPKFLLVSEGDRVTITCKASQSVSNDVAWYQQKSGQSPKLLIYYASNRYTGVPDRFTGSGYGTDFTFTISTVQAEDLAVYFCQQDYSSPLTFGAGTKLELKR | 1.59 | 0.17 | 0.08 | 2.49 | 0.09 | 0.54 | 0.1 | 0.06 | 0.46 | 2.66 | 0.29 | 0.13 | 3.03
monoclonal antibody ‘F6’ secreted by clone BK6A2F6 (antibody) heavy: EVQLQQSGPELVKPGASVKISCKASGYSFTGYFMNWVKQSHGKSLEWIGRINPYNGDTFYNQKFKGKATLTVDKSSSTAHMELLSLTSEDSAVYYCGSYYYGDYFDYWGQGTTLTVSSAKTTPPSVYPLAPGSAAQTNSMVTLGCLVKGYFPEPVTVTWNSGSLSSGVHTFPAVLQSDLYTLSSSVTVPSSTWPSETVTCNVAHPASSTKVDKKIVPRDCGCKPCICTVPEVSSVFIFPPKPKDVLTITLTPKVTCVVVDISKDDPEVQFSWFVDDVEVHTAQTQPREEQFNSTFRSVSELPIMHQDWLNGKEFKCRVNSAAFPAPIEKTISKTKGRPKAPQVYTIPPPKEQMAKDKVSLTCMITDFFPEDITVEWQWNGQPAENYKNTQPIMDTDGSYFVYSKLNVQKSNWEAGNTFTCSVLHEGLHNHHTEKSLSHSPGK light: […] | 2.86 | 0.19 | 0.14 | 3.07 | 0.08 | 1.28 | 0.09 | 0.07 | 1.06 | 3.16 | 0.29 | 0.16 | 3.16
